The DeepSol protein solubility set

experiment: soluble on expression in E. coli; label from the status in PepcDB or PDB records

Row | Sequence | soluble on expression in E. coli
1 | MGSDKIHHHHHHMSTSVLYHAFNLKGITYRATRFTGDVIEYFADVKEEYIRCPKCGQRKFTFKGQKTRSFHLGPMGRKRCFLVLSLHRIKCNTCDTLWWPDLPFMVGKHRFARSFALIVLDLLRFGTIRWVADYLGVGWDMIKEIHKLKLQRLYRNIPLHKVRYIGIDEFSIRKGHEYMTTVMDLSEGRILYATEGKGKEGILPFLKKLARKGKKLRAVAMDMGISFFSAVREALPNIDVVFDRYHIMALMNQGIENLRRNHQKELDDTGKQTLKGNRFLLLRNYDSLKPDHKERLDALMQANQPLFVMHSMKEQLRLFWEIPEYAQAVTFLDTWCKDAMLSGIKELVKVAKTLSGYRTAILNYFKHHITNAALEGTNNKIKTLKRQAYGFRDMEYFKLRLYHLHTQRYSLTG | not soluble
2 | MGSDKIHHHHHHMLNLTPSAISQSIQKLRVIFPDPLFIRKGQGVTPTAFAMHLHEYISQGLESILGALDIEGSYDKQRTITIATTPSVGALVLPVIYRAIKTHYPQLLLRNPPISDAENQLSQFQTDLIIDNMFCTNRTVQHHVLFTDNMVLICREGNPLLSLEDDRETIDNAAHVLLLPEEQNFSGLRQRVQEMFPDRQINFTSYNILTIAALVANSDMLAIIPSRFYNLFSRCWPLEKLPFPSLNEEQIDFSIHYNKFSLRDPILHGVIDVIRNAF | not soluble
3 | MQEIGILENLQKSLALKEGMLSYEMLGKSLSYNPYLPRVIPQTKDCVFVTPDEVLEKLLKENTHTDCVIVNFKGLYEIGAPSVFNLEVLGLLRRHASSLIVHQDLFISHYQLLESLVQGSDGVVLDEELLKEDLKGMVEFSWRLGLSVFVETHKQDYTHLKDLGVLGVLEKVPHSQNQKRIVFLD | not soluble
4 | MATNKREKQLERECHEQKTSQAVCETKEELEKSWKDFQKVSNEYKEAVTACRKYVEEKSRPKRTVLDGDMGEPTEDQEDTNDHARRRRHHNHEGHHGNDMKHRENMDRKKHGTHVDHHGRVRRNGDHDPNDPNVDHTGHNHRVKRSIDDDPSDTTIDHTRHNHRRKRNQDDDPTDTTIDHTGHNHRRRRSDDHDPNDPNVDHTGHNHRRKRNHDDDPSDTTIDHTGHNHRRRRSDDHDPNDPNVDHIGHNHHRRKRNHDDDPSDTTIDHTGHNHRRRRSEDHDPNDPNVDHTGHNHRRRRDQDDDPSDTTIDHTGHNHRRRRSDDHDPNDPNVDHTGHNHKRRHVIASRSRRTVCSTAGHDQLSAMSSKFTKHCERENICLPDEDLPKGKQQDDILALQKLRAKKYSEYLTQVSKCYGKLHGQSSGNDSWAPSAQSQEQYNPVYPSLSGTPNFFSSSAQAYEAAPYYPAKSTAAKTTSKPVQKPYRRHHQRPNKAWSSGSQQFHLVTIDPSKPHEKPSVSKIAEAAPKPIFKVARGTVKTVNKRGTKGVQKMPNHRLEGNSWETNGLQNQTARGGGGGRGRGRGSGGRGRGGFNRGGRFNGAPKPSNNKDDIPYVHLPDDSPAITLNVSSENITAFHGFDSVFTTKHNFPVLIDNKIYGSCDHYYQICKVTDLTGVSSDKLNRGVRDENGKPIVETIEDAEKKSHSALAKDIIKAANISKEKVDEWRNSKGLETIQKALHAKVTQSAHLREALKESGDNILVHAFARDSIYGTGCTIPAIKKWLDDLSKAGVKHLKIPATFPLNKTTVQHCPVFAQGRNVLGVILMQLRQKISSGEIQVVDMSRIFNALRVNNAPAEPMDTSSKFGFISDTKSIGTF | not soluble
5 | MNKAQIEIYYCRQCNWMLRSAWLSQELLHTFSEEIEYVALHPDTGGRFEIFCNGVQIWERKQEGGFPEAKVLKQRVRDLIDPERDLGHVDRPSSTQSLEHHHHHH | soluble
6 | MFVLNIFSTTHKQRGLNRASCPPLGNYSNNHTLAYRVKCISEETRDSNSLVSSLNRKLWKTSVAGSDIPMIYSPFLEDMQNTLFASFETVEDYPLSEFLASAQSSKKPARIESWCYQCPKFRKIRLTYLDAGVAAQVFNAVWYPISSLELPILGVDFLSFGGKNVLCVMDFQPLMNDQYYLDKYIQPLHPIRERYADLAGRMSSRFYDENRFFSKELLFGRFDSTKPIYERLFPAFREYLDLYITLAKQTVEDDKSRSIIWQLQCEYDRYSAEKDPAMSLFRSYFGSTWAHRFVYEFLFENSRYESSLDNKT | soluble
7 | KMGKTPKTEILSFEQYQVTPYLSGLLELDPDTEVFELERLRIADDMPLMFERSYIPAQPFQGLSIADLKRKALYDIFAKDYQETIRLAEEEFYASIALDYEAGLLGIKKGDPVLHIIRKTYNDKNILIELTFSIARADQFRYRVQHHPNG | not soluble
8 | MKIKLEHGAGGELMEELIRDVILKNLTLNSAGGIGLEALDDGATIPFEGKHLVFTIDGHTVRPLFFPGGDIGRLAVSGTVNDLAVMGAKPLALASSLIIGEGFDSDKLEEILKSMNRTAKEVPVPIITGDTKVVEDNIEIFVITAGIGIAEKPISDAGAKVGDLVLVNGTIGDHGIALMSHREGISFETELKSDVAPIWDVVKTVADAIGWENIHAMKDPTRGGLSNALNEMARKADVGILVRESDIPIRPEVKAAGDMLGISPYDVANEGKVIMVVDREYAEDALEAMRKTEKGKDAAIIGEIIKDYPGKVILETGIGGRRFLEPPIGDPVPRVC | soluble
9 | MGSDKIHHHHHHVRLWIPHVTRPTVQPASSYATYSVMPGATVKELADLIGVSTTAVRDHLVHLQAEGMVEVTSERSGPGRPRLVYSLSEKAQKSFPKQYDRLISTLLRELIELEGEGKVEQLLDRVSQRLASEYADRMAGSDVAARLNELRALLEQRGVPAEIDPEGDVLRLFACPYYDVAADYPEVCSMERRMIEYVLGEKLVLEDTIRAGAHNCRFVLRPQDIPLTMTPPAADPTTEV | not soluble
10 | VKMIFIFIDGFGIGKEDASVNPLANPELPNINYILNKAGAIPTDACLDVPGLPQSATGQTTIFTGQNASKVLSRHLHGQPTITLKKMIIENNLFKELIKRGFSVTNSNVYRTPYIEKIKDPKERKYRPSVTTVMTLSCGLNLRTVEEYITGDGVYHDIIGEILKNEGYVEELITPREAAQRLYSLSRKYDFTLFEYFVTDILGHKMEMEEAVEKLKILDAFLGELLNLYNEDEDIIFITSDHGNIEDLTVNTHTFNKVPTVILGKIPENVEIEINSLTDIMPTILKIFDAKGEL | soluble
11 | GPGSMVVAVYPGTFDPLTRGHEDLVRRASSIFDTLVVGVADSRAKKPFFSLEERLKIANEVLGHYPNVKVMGFTGLLKDFVRANDARVIVRGLRAVSDFEYEFQMAGMNRYLLPDVETMFMTPSDQYQFISGTIVREIAQLGGDVSKFVFPSVEKWLTEKVAAMAQGPSA | soluble
12 | MSISKDSRIAIIGAGPAGLAAGMYLEQAGFHDYTILERTDHVGGKCHSPNYHGRRYEMGAIMGVPSYDTIQEIMDRTGDKVDGPKLRREFLHEDGEIYVPEKDPVRGPQVMAAVQKLGQLLATKYQGYDANGHYNKVHEDLMLPFDEFLALNGCEAARDLWINPFTAFGYGHFDNVPAAYVLKYLDFVTMMSFAKGDLWTWADGTQAMFEHLNATLEHPAERNVDITRITREDGKVHIHTTDWDRESDVLVLTVPLEKFLDYSDADDDEREYFSKIIHQQYMVDACLVKEYPTISGYVPDNMRPERLGHVMVYYHRWADDPHQIITTYLLRNHPDYADKTQEECRQMVLDDMETFGHPVEKIIEEQTWYYFPHVSSEDYKAGWYEKVEGMQGRRNTFYAGEIMSFGNFDEVCHYSKDLVTRFFV | soluble
13 | MGSDKIHHHHHHMFVIWSHRTGFIMSHQLTFADSEFSSKRRQTRKEIFLSRMEQILPWQNMVEVIEPFYPKAGNGRRPYPLETMLRIHCMQHWYNLSDGAMEDALYEIASMRLFARLSLDSALPDRTTIMNFRHLLEQHQLARQLFKTINRWLAEAGVMMTQGTLVDATIIEAPSSTKNKEQQRDPEMHQTKKGNQWHFGMKAHIGVDAKSGLTHSLVTTAANEHDLNQLGNLLHGEEQFVSADAGYQGAPQREELAEVDVDWLIAERPGKVRTLKQHPRKNKTAINIEYMKASIRARVEHPFRIIKRQFGFVKARYKGLLKNDNQLAMLFTLANLFRADQMIRQWERSH | not soluble
